Test results as given in paper PMC9482650, “Quantitative fragmentomics allow affinity mapping of interactomes” (Nature Communications, 2022).

T1: APBA2_2, Q99767
T1 sequence (Q99767 654-744, limits assumed, looked up): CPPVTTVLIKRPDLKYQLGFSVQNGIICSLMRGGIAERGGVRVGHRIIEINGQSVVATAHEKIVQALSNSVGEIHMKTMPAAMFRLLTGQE

T2: CARD11, Q9BXL7
T2 sequence (Q9BXL7 662-765, limits assumed, looked up): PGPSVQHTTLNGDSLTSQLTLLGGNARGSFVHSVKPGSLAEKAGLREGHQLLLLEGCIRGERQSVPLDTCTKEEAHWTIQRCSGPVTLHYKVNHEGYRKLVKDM

T3: GRIP1_4, Q9Y3R0
T3 sequence (Q9Y3R0 467-571, limits assumed, looked up): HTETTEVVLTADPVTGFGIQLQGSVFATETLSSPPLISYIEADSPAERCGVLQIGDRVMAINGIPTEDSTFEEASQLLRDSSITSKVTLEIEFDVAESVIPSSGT

T4: GRIP1_7, Q9Y3R0
T4 sequence (Q9Y3R0 999-1096, limits assumed, looked up): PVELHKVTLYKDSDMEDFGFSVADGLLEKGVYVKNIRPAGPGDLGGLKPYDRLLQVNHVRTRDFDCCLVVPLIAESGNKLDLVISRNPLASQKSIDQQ

T5: HTRA3, P83110
T5 sequence (P83110 354-453, limits assumed, looked up): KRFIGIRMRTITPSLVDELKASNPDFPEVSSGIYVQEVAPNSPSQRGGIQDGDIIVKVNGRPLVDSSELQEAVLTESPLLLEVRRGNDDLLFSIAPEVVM

T6: LIN7A, O14910
T6 sequence (O14910 103-200, limits assumed, looked up): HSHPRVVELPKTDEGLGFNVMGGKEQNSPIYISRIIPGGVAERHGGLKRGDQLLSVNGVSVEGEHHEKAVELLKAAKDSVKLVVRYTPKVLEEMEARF

T7: MPDZ_10, O75970
T7 sequence (O75970 1624-1722, limits assumed, looked up): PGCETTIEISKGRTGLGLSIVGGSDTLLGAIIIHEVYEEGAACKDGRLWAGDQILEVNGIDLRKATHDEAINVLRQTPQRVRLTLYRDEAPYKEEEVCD

T8: PCLO, Q9Y6V0
T8 sequence (Q9Y6V0 4491-4600, limits assumed, looked up): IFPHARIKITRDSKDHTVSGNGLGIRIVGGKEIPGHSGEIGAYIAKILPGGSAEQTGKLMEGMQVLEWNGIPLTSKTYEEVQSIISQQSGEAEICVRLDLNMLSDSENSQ

T9: PDZD2_2, O15018
T9 sequence (O15018 329-429, limits assumed, looked up): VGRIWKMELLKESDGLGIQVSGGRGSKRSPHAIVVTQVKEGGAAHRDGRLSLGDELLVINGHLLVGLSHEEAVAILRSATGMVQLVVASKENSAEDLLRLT

T10: RADIL, Q96JH8
T10 sequence (Q96JH8 971-1071, limits assumed, looked up): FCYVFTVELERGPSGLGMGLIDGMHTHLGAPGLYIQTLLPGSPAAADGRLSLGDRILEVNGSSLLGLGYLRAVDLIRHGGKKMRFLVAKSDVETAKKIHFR

T11: SHANK1, Q9Y566
T11 sequence (Q9Y566 658-767, limits assumed, looked up): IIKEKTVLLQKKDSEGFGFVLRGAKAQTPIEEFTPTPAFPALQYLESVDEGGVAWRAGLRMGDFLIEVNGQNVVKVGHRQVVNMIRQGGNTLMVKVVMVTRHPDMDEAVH

T12: SIPA1L2, Q9P2F8
T12 sequence (Q9P2F8 945-1036, limits assumed, looked up): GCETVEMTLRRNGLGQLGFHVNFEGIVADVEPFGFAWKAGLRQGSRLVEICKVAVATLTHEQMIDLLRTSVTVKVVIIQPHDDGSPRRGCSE

T13: SNTG1, Q9NSN8
T13 sequence (Q9NSN8 52-150, limits assumed, looked up): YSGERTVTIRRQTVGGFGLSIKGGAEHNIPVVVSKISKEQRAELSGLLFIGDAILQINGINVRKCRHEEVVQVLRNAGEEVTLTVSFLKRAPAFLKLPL


These binders were tested against T1, APBA2_2, Q99767 (assay: holdup assay). Conditions: plain residues with an end cap or a label only (N-terminal biotin on a linker: ttds).
Parameters: key: below the threshold = too weak to quantify, mostly under pKd 3.1 to 4

Binder | pKd
SRSRRRETAL [HPV33-E6, P06427] | below the threshold
FVETQHQTQV [FAT3, Q8TDW7] | below the threshold
SGGKRKETLV [NET1, Q7Z628] | below the threshold

What follows are binders tested against ARHGEF12, Q9NZN5-2 (assay: holdup assay). Conditions: plain residues with an end cap or a label only (N-terminal biotin on a linker: ttds).
Parameters: key: below the threshold = too weak to quantify, mostly under pKd 3.1 to 4

Chain of ARHGEF12, Q9NZN5-2 (Q9NZN5 other isoform, or with tags, fused parts or gaps): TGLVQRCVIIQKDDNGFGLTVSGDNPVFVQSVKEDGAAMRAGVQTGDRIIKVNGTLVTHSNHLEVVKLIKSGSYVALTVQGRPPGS

Binder | pKd
SRSRRRETAL [HPV33-E6, P06427] | 4.78
FVETQHQTQV [FAT3, Q8TDW7] | 3.88
SGGKRKETLV [NET1, Q7Z628] | 3.74

These binders were tested against T2, CARD11, Q9BXL7 (assay: holdup assay). Conditions: plain residues with an end cap or a label only (N-terminal biotin on a linker: ttds).
Parameters: key: below the threshold = too weak to quantify, mostly under pKd 3.1 to 4

Binder | pKd
SRSRRRETAL [HPV33-E6, P06427] | below the threshold
FVETQHQTQV [FAT3, Q8TDW7] | below the threshold
SGGKRKETLV [NET1, Q7Z628] | below the threshold

What follows are binders tested against DLG2_3, Q15700 (assay: holdup assay). Conditions: plain residues with an end cap or a label only (N-terminal biotin on a linker: ttds).
Parameters: key: below the threshold = too weak to quantify, mostly under pKd 3.1 to 4

Binder | pKd
SRSRRRETAL [HPV33-E6, P06427] | 5.23
FVETQHQTQV [FAT3, Q8TDW7] | 3.59
SGGKRKETLV [NET1, Q7Z628] | 5.21

The binders below were run against GRID2IP_2, A4D2P6 (assay: holdup assay). Conditions: plain residues with an end cap or a label only (N-terminal biotin on a linker: ttds).
Parameters: key: below the threshold = too weak to quantify, mostly under pKd 3.1 to 4

Chain of GRID2IP_2, A4D2P6 (A4D2P6 272-370): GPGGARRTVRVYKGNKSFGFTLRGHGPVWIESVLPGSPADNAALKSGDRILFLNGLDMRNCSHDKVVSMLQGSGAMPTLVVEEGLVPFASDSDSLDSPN

Binder | pKd
SRSRRRETAL [HPV33-E6, P06427] | 4.18
FVETQHQTQV [FAT3, Q8TDW7] | 3.59
SGGKRKETLV [NET1, Q7Z628] | 3.56

What follows are binders tested against T3, GRIP1_4, Q9Y3R0 (assay: holdup assay). Conditions: plain residues with an end cap or a label only (N-terminal biotin on a linker: ttds).
Parameters: key: below the threshold = too weak to quantify, mostly under pKd 3.1 to 4

Binder | pKd
SRSRRRETAL [HPV33-E6, P06427] | below the threshold
FVETQHQTQV [FAT3, Q8TDW7] | below the threshold
SGGKRKETLV [NET1, Q7Z628] | below the threshold

The binders below were run against T4, GRIP1_7, Q9Y3R0 (assay: holdup assay). Conditions: plain residues with an end cap or a label only (N-terminal biotin on a linker: ttds).
Parameters: key: below the threshold = too weak to quantify, mostly under pKd 3.1 to 4

Binder | pKd
SRSRRRETAL [HPV33-E6, P06427] | below the threshold
FVETQHQTQV [FAT3, Q8TDW7] | below the threshold
SGGKRKETLV [NET1, Q7Z628] | below the threshold

What follows are binders tested against HTRA1, Q92743 (assay: holdup assay). Conditions: plain residues with an end cap or a label only (N-terminal biotin on a linker: ttds).
Parameters: key: below the threshold = too weak to quantify, mostly under pKd 3.1 to 4

Chain of HTRA1, Q92743 (Q92743 360-477): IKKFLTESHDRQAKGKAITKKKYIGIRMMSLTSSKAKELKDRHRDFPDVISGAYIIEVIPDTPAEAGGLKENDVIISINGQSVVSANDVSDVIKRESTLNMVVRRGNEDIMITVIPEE

Binder | pKd
SRSRRRETAL [HPV33-E6, P06427] | 3.48
FVETQHQTQV [FAT3, Q8TDW7] | below the threshold
SGGKRKETLV [NET1, Q7Z628] | below the threshold

What follows are binders tested against T5, HTRA3, P83110 (assay: holdup assay). Conditions: plain residues with an end cap or a label only (N-terminal biotin on a linker: ttds).
Parameters: key: below the threshold = too weak to quantify, mostly under pKd 3.1 to 4

Binder | pKd
SRSRRRETAL [HPV33-E6, P06427] | below the threshold
FVETQHQTQV [FAT3, Q8TDW7] | below the threshold
SGGKRKETLV [NET1, Q7Z628] | below the threshold

These binders were tested against IL16_3, Q14005 (assay: holdup assay). Conditions: plain residues with an end cap or a label only (N-terminal biotin on a linker: ttds).
Parameters: key: below the threshold = too weak to quantify, mostly under pKd 3.1 to 4

Chain of IL16_3, Q14005 (Q14005 1107-1207): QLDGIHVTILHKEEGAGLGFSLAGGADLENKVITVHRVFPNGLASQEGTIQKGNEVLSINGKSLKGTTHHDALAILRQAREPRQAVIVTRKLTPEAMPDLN

Binder | pKd
SRSRRRETAL [HPV33-E6, P06427] | below the threshold
FVETQHQTQV [FAT3, Q8TDW7] | below the threshold
SGGKRKETLV [NET1, Q7Z628] | below the threshold

The binders below were run against Inadl_6, Q8NI35 (assay: holdup assay). Conditions: plain residues with an end cap or a label only (N-terminal biotin on a linker: ttds).
Parameters: key: below the threshold = too weak to quantify, mostly under pKd 3.1 to 4

Chain of Inadl_6, Q8NI35 (Q8NI35 1058-1167): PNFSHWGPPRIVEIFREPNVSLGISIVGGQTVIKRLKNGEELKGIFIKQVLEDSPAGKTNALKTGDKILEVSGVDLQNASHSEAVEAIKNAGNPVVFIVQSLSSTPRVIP

Binder | pKd
SRSRRRETAL [HPV33-E6, P06427] | 3.7
FVETQHQTQV [FAT3, Q8TDW7] | below the threshold
SGGKRKETLV [NET1, Q7Z628] | 3.6

Each binder was assayed against LAP2, Q96RT1 (assay: holdup assay). Conditions: plain residues with an end cap or a label only (N-terminal biotin on a linker: ttds).
Parameters: key: below the threshold = too weak to quantify, mostly under pKd 3.1 to 4

Chain of LAP2, Q96RT1 (Q96RT1 other isoform, or with tags, fused parts or gaps): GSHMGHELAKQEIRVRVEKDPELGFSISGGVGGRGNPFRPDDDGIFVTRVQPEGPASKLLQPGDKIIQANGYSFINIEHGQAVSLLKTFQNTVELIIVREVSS

Binder | pKd
SRSRRRETAL [HPV33-E6, P06427] | below the threshold
FVETQHQTQV [FAT3, Q8TDW7] | 3.65
SGGKRKETLV [NET1, Q7Z628] | below the threshold

The binders below were run against LIMK2, P53671 (assay: holdup assay). Conditions: plain residues with an end cap or a label only (N-terminal biotin on a linker: ttds).
Parameters: key: below the threshold = too weak to quantify, mostly under pKd 3.1 to 4

Chain of LIMK2, P53671 (P53671 143-248): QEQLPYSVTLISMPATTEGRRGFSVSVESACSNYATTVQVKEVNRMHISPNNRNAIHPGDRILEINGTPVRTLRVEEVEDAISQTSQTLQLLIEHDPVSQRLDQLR

Binder | pKd
SRSRRRETAL [HPV33-E6, P06427] | below the threshold
FVETQHQTQV [FAT3, Q8TDW7] | below the threshold
SGGKRKETLV [NET1, Q7Z628] | below the threshold

What follows are binders tested against T6, LIN7A, O14910 (assay: holdup assay). Conditions: plain residues with an end cap or a label only (N-terminal biotin on a linker: ttds).
Parameters: key: below the threshold = too weak to quantify, mostly under pKd 3.1 to 4

Binder | pKd
SRSRRRETAL [HPV33-E6, P06427] | below the threshold
FVETQHQTQV [FAT3, Q8TDW7] | below the threshold
SGGKRKETLV [NET1, Q7Z628] | below the threshold

What follows are binders tested against T7, MPDZ_10, O75970 (assay: holdup assay). Conditions: plain residues with an end cap or a label only (N-terminal biotin on a linker: ttds).
Parameters: key: below the threshold = too weak to quantify, mostly under pKd 3.1 to 4

Binder | pKd
SRSRRRETAL [HPV33-E6, P06427] | below the threshold
FVETQHQTQV [FAT3, Q8TDW7] | below the threshold
SGGKRKETLV [NET1, Q7Z628] | below the threshold

Each binder was assayed against NHERF4_1, Q86UT5-2 (assay: holdup assay). Conditions: plain residues with an end cap or a label only (N-terminal biotin on a linker: ttds).
Parameters: key: below the threshold = too weak to quantify, mostly under pKd 3.1 to 4

Chain of NHERF4_1, Q86UT5-2 (Q86UT5 other isoform, or with tags, fused parts or gaps): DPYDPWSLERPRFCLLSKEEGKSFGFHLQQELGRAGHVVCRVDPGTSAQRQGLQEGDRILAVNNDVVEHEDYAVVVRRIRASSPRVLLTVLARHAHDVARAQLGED

Binder | pKd
SRSRRRETAL [HPV33-E6, P06427] | 4.42
FVETQHQTQV [FAT3, Q8TDW7] | below the threshold
SGGKRKETLV [NET1, Q7Z628] | below the threshold

What follows are binders tested against T8, PCLO, Q9Y6V0 (assay: holdup assay). Conditions: plain residues with an end cap or a label only (N-terminal biotin on a linker: ttds).
Parameters: key: below the threshold = too weak to quantify, mostly under pKd 3.1 to 4

Binder | pKd
SRSRRRETAL [HPV33-E6, P06427] | below the threshold
FVETQHQTQV [FAT3, Q8TDW7] | below the threshold
SGGKRKETLV [NET1, Q7Z628] | below the threshold

Each binder was assayed against T9, PDZD2_2, O15018 (assay: holdup assay). Conditions: plain residues with an end cap or a label only (N-terminal biotin on a linker: ttds).
Parameters: key: below the threshold = too weak to quantify, mostly under pKd 3.1 to 4

Binder | pKd
SRSRRRETAL [HPV33-E6, P06427] | below the threshold
FVETQHQTQV [FAT3, Q8TDW7] | 4.35
SGGKRKETLV [NET1, Q7Z628] | 4.25

What follows are binders tested against T10, RADIL, Q96JH8 (assay: holdup assay). Conditions: plain residues with an end cap or a label only (N-terminal biotin on a linker: ttds).
Parameters: key: below the threshold = too weak to quantify, mostly under pKd 3.1 to 4

Binder | pKd
SRSRRRETAL [HPV33-E6, P06427] | below the threshold
FVETQHQTQV [FAT3, Q8TDW7] | 4.27
SGGKRKETLV [NET1, Q7Z628] | 3.82

Each binder was assayed against T11, SHANK1, Q9Y566 (assay: holdup assay). Conditions: plain residues with an end cap or a label only (N-terminal biotin on a linker: ttds).
Parameters: key: below the threshold = too weak to quantify, mostly under pKd 3.1 to 4

Binder | pKd
SRSRRRETAL [HPV33-E6, P06427] | 3.51
FVETQHQTQV [FAT3, Q8TDW7] | 3.63
SGGKRKETLV [NET1, Q7Z628] | below the threshold

The binders below were run against T12, SIPA1L2, Q9P2F8 (assay: holdup assay). Conditions: plain residues with an end cap or a label only (N-terminal biotin on a linker: ttds).
Parameters: key: below the threshold = too weak to quantify, mostly under pKd 3.1 to 4

Binder | pKd
SRSRRRETAL [HPV33-E6, P06427] | below the threshold
FVETQHQTQV [FAT3, Q8TDW7] | below the threshold
SGGKRKETLV [NET1, Q7Z628] | below the threshold

Each binder was assayed against T13, SNTG1, Q9NSN8 (assay: holdup assay). Conditions: plain residues with an end cap or a label only (N-terminal biotin on a linker: ttds).
Parameters: key: below the threshold = too weak to quantify, mostly under pKd 3.1 to 4

Binder | pKd
SRSRRRETAL [HPV33-E6, P06427] | 3.62
FVETQHQTQV [FAT3, Q8TDW7] | 4.02
SGGKRKETLV [NET1, Q7Z628] | 3.83

Each binder was assayed against TJP1_2, Q07157 (assay: holdup assay). Conditions: plain residues with an end cap or a label only (N-terminal biotin on a linker: ttds).
Parameters: key: below the threshold = too weak to quantify, mostly under pKd 3.1 to 4

Chain of TJP1_2, Q07157 (Q07157 181-274): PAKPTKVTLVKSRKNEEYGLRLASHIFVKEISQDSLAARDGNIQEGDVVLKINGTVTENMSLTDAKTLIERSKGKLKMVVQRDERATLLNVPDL

Binder | pKd
SRSRRRETAL [HPV33-E6, P06427] | below the threshold
FVETQHQTQV [FAT3, Q8TDW7] | below the threshold
SGGKRKETLV [NET1, Q7Z628] | below the threshold
